Legend:
[1] = target: T1, full-length Drosophila histone H1 fusion protein with a maltose binding protein-tag (Drosophila, UniProt P02255 1-256); assay: far-Western, overlay or dot blot
T1 sequence (looked up): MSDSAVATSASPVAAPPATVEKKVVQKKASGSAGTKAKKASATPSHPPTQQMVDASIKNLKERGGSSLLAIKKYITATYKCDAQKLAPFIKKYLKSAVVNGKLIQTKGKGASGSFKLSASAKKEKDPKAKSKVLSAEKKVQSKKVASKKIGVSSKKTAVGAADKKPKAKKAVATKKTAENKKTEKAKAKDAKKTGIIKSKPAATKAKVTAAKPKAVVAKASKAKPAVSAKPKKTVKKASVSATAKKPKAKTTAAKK

[2] = target: T2, His-tagged (6x) Drosophila histone H1 fusion protein (Drosophila, UniProt P02255 1-256); assay: pull-down
T2 sequence (looked up): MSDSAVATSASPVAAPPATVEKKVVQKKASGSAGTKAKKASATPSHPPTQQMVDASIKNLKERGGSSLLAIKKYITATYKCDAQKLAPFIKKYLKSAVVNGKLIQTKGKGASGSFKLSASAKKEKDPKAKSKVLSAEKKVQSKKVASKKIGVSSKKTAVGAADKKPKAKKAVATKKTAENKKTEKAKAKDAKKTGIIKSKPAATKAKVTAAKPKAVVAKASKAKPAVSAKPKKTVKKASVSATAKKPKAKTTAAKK

- binding result [1]: binds
- binding result [2]: binds
B1: GST-tagged Chromator chromodomain (219-277) (domain or fragment, Drosophila, UniProt Q86BS3 219-277, looked up)
chain: TEEPVEKIVAKRFNPRRKTHEYLVKWVDRSHHENTWEVMANLERVPYFLQMFEKQLARQ
